# Measured values reported in patent US20230057602A1, “METHODS OF TREATMENT WITH ANTIBODIES AGAINST BCMA AND CD3” (BRISTOL-MYERS SQUIBB COMPANY, priority 2019, published 2023).
# Columns and labels:
# [1] = test system: SKMM2 BCMA-expressing myeloma cell line; assay: CC-93269-induced redirected lysis of SKMM2; assay type: cell-based, human; details: E:T 1:1, 72 hours, 3 donors
# Experimental: Four BCMA-expressing tumour cell lines purchased from ATCC (Manassa, Va.) (Multiple Myeloma cell lines: BCMA high-H-929 (catalog number CRL-9068), BCMA mid-SKMM2 and -MM.1S (catalog number ACC-430) and BCMA low-KMS12-PE (catalog number ACC-606)) were co-cultured with T-cells from 3 independent healthy donors (Bloodworks Northwest, Seattle, Wash.), at a E:T ratio of 1:1, i.e. 1 T cell: 1 myeloma cell. […]; 0.033-2.6 nM) for 72 hours.
# FIG. 7 illustrates CC-93269-induced redirected lysis of BCMA+ tumour cell lines following co-culture with donor T cells from one healthy donor; results from all 3 independent healthy donors are summarised in Table 19. In 96-well round bottom plates and a final volume of 100 μL, 1×10^4 CellTrace Violet-labeled T-cells were plated with 1×10^4 CellTrace CFSE-labeled target cells, in the presence of varying concentrations of CC-93269 in combination with varying concentrations of dexamethasone (7-point dose response). The cocultures were incubated at 37° C. with 5% CO2. […] One-hundred percent viability was determined by the absolute cell count of live tumour cells at no addition of CC-93269 or dexamethasone; an absolute cell count of 0 live cells was used to define 100% killing of tumour cells. […] The IC50 values were calculated using non-linear regression analysis, sigmoidal dose-response using GraphPad Prism (version 5.0) software.
# [2] = test system: Relapsed/Refractory Multiple Myeloma (RRMM) patients; assay: Clinical study of CC-93269 in RRMM: safety, cytokine release syndrome (CRS); assay type: in vivo, human
# Experimental: CC-93269 (42-TCBcv), a bispecific antibody that specifically binds to BCMA bivalently and CD3 monovalently, was administered intravenously over 2 hours on Days 1, 8, 15, and 22 for Cycles 1-3; Days 1 and 15 for Cycles 4-6; and on Day 1 for Cycle 7 and beyond, all in 28-day cycles. […] 5 patients received a starting dose of 6 mg on Cycle 1 Day 1, followed by a dose of 10 mg on Cycle 1 Day 8 and thereafter (Cohort 7, n=5).
# CRS prophylaxis was implemented with dexamethasone (up to 20 mg intravenous or equivalent) for the first dose and dose increases in patients receiving ≥6 mg. In Cohorts 1-4, dexamethasone was not used as a premedication.
# Patients were monitored for clinical signs and symptoms associated with CRS (Lee, 2014) and CRS events were graded and treated according to the common CTCAE CRS grading scale (Lee, 2015).
# CC-93269 was administered intravenously over 2 hours on Days 1, 8, 15, and 22 for Cycles 1-3; Days 1 and 15 for Cycles 4-6; and on Day 1 for Cycle 7 and beyond, all in 28-day cycles. Patients received a starting dose of 3 mg on Cycle 1 Day 1, followed by a dose of 6 mg on Cycle 1 Day 8 and thereafter.
# Cohorts 8 (n=6) and 9 (n=5) differ in baseline multiple myeloma tumor burden based on percentage of bone marrow plasma cells and/or the presence of extramedullary disease (Cohort 8 including subjects with ≤50% bone marrow plasma cells [biopsy or aspirate] and ≤5 extramedullary lesions and Cohort 9 including subjects with >50% bone marrow plasma cells or >5 extramedullary lesions). Patients with lower (Cohort 8) and higher (Cohort 9) tumour burden were enrolled to evaluate possible differences in tolerability based on the rationale that the only patient of Cohorts 1-7 to experience Grade ≥3 CRS had extensive extramedullary disease at enrolment.
# In Cohorts 8 and 9, all patients received dexamethasone (up to 20 mg intravenous or equivalent) as prophylaxis for CRS prior to the first dose, the second dose, any dose increase, and after dose interruption of more than 2 weeks occurring during Cycles 1 to 6. Patients were monitored, graded, and treated for CRS in the same way as for Cohorts 1-7 in Example 1.
substance,measurement,setting,value
"CC-93269: bispecific antibody that specifically binds to BCMA bivalently and CD3 monovalently; SEQ ID NO:48, 55, 56, 57 (2×)","% live tumour cells, Mean",[1]; 1 μM Dex co-treatment,3.5%
same,"% live tumour cells, Mean",[1]; DMSO,2.68%
same,patients who experienced CRS,"[2]; 11 patients, 3/6 mg dose regimen (Cohorts 8 and 9)",54.5%
same,subjects with Grade 2 or higher CRS events,[2]; 11 subjects receiving 3/6 mg,18.2%
same,subjects with Grade 2 or higher CRS events,"[2]; 12 subjects, 6 mg, 6/10 mg, or 10 mg doses",50%
same,subjects who experienced CRS,"[2]; 12 subjects, 6 mg, 6/10 mg, or 10 mg doses (Cohorts 5 to 7)",100%
same,"CRS, maximum Grade","[2]; Cohort 6, consecutive doses of 6 mg, all CRS events in Cycle 1",2
same,"CRS frequency or severity, higher versus lower tumor burden",[2]; Cohort 9 compared with Cohort 8,no increase observed
same,Grade 3 or higher CRS events,[2]; Cohorts 8 and 9,no Grade 3 or higher CRS events were reported
same,severity of CRS in comparison with Cohorts 5 to 7,[2]; Cohorts 8 and 9,generally decreased
same,CRS events of Grade 1,"[2]; Cohorts 8 and 9, 8 events",75%
same,CRS events of Grade 2,"[2]; Cohorts 8 and 9, 8 events",25%
same,outcome of CRS events,"[2]; Cohorts 8 and 9, tocilizumab and/or dexamethasone",resolved with standard treatments
same,death on study,"[2]; One patient, 6 mg first dose and 10 mg on Cycle 1 Day 8 (Cohort 7)",died on the study in the setting of CRS
same,CRS events lasting more than 3 days,[2]; all cohorts 1 to 9,4 of 36
same,CRS events occurring with the first dose on C1D1,[2]; all cohorts 1 to 9,73.3%
same,CRS events occurring with the second dose on C1D8,[2]; all cohorts 1 to 9,23.3%
same,"duration of a CRS event, range",[2]; all cohorts 1 to 9,1 to 7 days
same,maximum time to first onset of CRS,[2]; all cohorts 1 to 9,3 days
same,median duration of a CRS event,[2]; all cohorts 1 to 9,2 days
same,median time to first onset of CRS,[2]; all cohorts 1 to 9,1 days
same,CRS events occurring with subsequent doses,"[2]; all cohorts 1 to 9, limited to Grade ≤2 events",2.7%
same,tolerability,"[2]; consecutive doses of ≤3 mg, no CRS prophylactic",well-tolerated
same,"Cytokine release syndrome, maximum Grade",[2]; fixed dose of ≤3 mg,1
same,CRS Grade after the first dose,"[2]; one patient of Cohort 7, Cycle 1 Day 1, 6 mg",3
same,CRS Grade after the second dose,"[2]; same patient of Cohort 7, Cycle 1 Day 8, 10 mg",5
